From the nanobody polyreactivity screen of Harvey et al. (2022)

Assay: yeast display, Sf9 membrane polyspecificity reagent, FACS + sequencing; frameworks hold sequencing errors
Summary of the method: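 A synthetic nanobody library was expressed on Saccharomyces cerevisiae BJ5465 by galactose induction for 36–48 hours. The library was stained for 1 hour at 4 °C with 10% biotinylated, detergent-solubilized Sf9 membrane reagent and enriched with streptavidin microbeads before FACS. Low and high (top ~1%) gates were set on anti-HA fluorescence for expression and streptavidin fluorescence for reagent binding, and each polyreactivity label reflects the gate of origin.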

| Sequence | polyreactivity (PSR sort gate) |
| --- | --- |
| QVQLVDSGGGLVQAGGSLRLNFAASGLTFDRYGMGWYRQGPGKERELVAAIDGSGTSTYYADSVKGRFTISRDNAKNTVYLQMNSLKPEDTAVYYCAAGALSWYDYWGQGTQVTVSS | low polyreactivity |
| QVQLVESGGGLVQAGGSLRLSCAASGSTFGNNAMGWYRQAPGKERELVATIDDTTVSTNYADSVKWRFTISRDNAKNTVYLQMNSLKPEDTAVYYCAAPVGNYGSFDYWGQGTQVTVSS | low polyreactivity |
| QVQLVESGGGLVQAGGSLRLSCAASGRTFFYNTMGWYRQAPGKERELVARITRGGSTYYADSVKGRFTISRDNAKNSVYLQMNSLKPEDTAVYYCAAGYWRGYFLYGFDYWGQGTQVTVSS | high polyreactivity |
| QVKLVESGGGLVQAGGSLRLSCAASGNILGYNAMGWYRQEPGKERELVAAITQSGGSTYYADSVKGRFTISRDNAKYSVYLQMTSLKPEDTAVYDCAVDCGPFYDPFGYWGQGTQVTVSS | low polyreactivity |
| QVQLVESGGGLVQAGGSLRLSCAASGRTFTSYAMGSYRQAPGKERELVAVITRRGGSTSYADSVKGRFTISRDNAKNTVYLQMNSLKPEDTAVYYCAAKRTWPDVNYYYWGQGTQVTVSS | high polyreactivity |
| QVQLVESGGGLVQAGGSLRLSCAASGSTFYVYDMGWYRQAPWKERELVAAISSGAGSTYYADSVKGRFTSSRDNAKNTVYLKLNSLKRKIPRSITALLFTVNGGGSRSHDYWAQGTQVTVSS | low polyreactivity |
| QVQLVESGGGLVQAGGSLRLSCAASGFIFRYYAMGWYRQAPGKEREFVAAISRSGSSTYYADSVKGRFTISRDNAKNTVYLQMNSLKPEDTAVYYCNARKYRKGYGYWGQGTQVTVSS | high polyreactivity |
| QVQLVESGGGLVQAGGSLRLSCAASGLIFYPYAMGWYRQAPGKERELVAAITSGDSTYYADSVKGRFTISRDNAKNTVYLQMNSLKPEDTAVYYCNADASYYYYHSDTVYGFDYWGQGTQVTVSS | low polyreactivity |
| QVQLVESGGGLVQAGCSLRLSCAASGFTFTTYAMGWYRQSPGKERELVAAISRSTGSTYYADSVKGRFTISRDNAKNTVYLKMNSMKPEDTAVYYCNTVFPNGYLSKYYYWGQGTKVTVSS | high polyreactivity |
| QVQRVESGGGLVQAGGSLRLSCAASGRTLARNAMGWYRQAPGKERELVASINGRTTRTYYADSVKGRFTISRDNAKNTVYLQMNSLKPEDTAVYYCAVKDRYSFRYDYWGQGTQVTVSS | high polyreactivity |
| QVQLVESGGGLVQAGGSLRLSCAASGFTFGGYVMGWYRQAPGKERELVAAINQTGGSTYYADSVKGRFTISRDNAKNTVYLQMNSLKPEDTAVYYCAALGYHGYRNYDYWGQGTQVTVSS | low polyreactivity |
| QVQLVESGGGLVQAGGSLRLSCAASGRIFWYYAMGWYRPAPGKERELVATISYGGGNTYYADSVKGRFTISRDNAKNTVYLQMNSLKPEDTAVYYCARVPYAYLPYKPFQQYSYDYWGQGTQVTVSS | high polyreactivity |
| QVQLVESGGGLVQAGGSLRLSCAASGRTFVRYAMGWYRQAPGKERELVARITSSGGSTYYADSVKGRFTISRDNAKNTVYLQMNSLKPEDTAVYYCAKDTAFYRFQGHYGYWGQGTQVTVSS | high polyreactivity |
| QVQLVESGGGLVQAGGSLRLSCAASGITFFHYAMGWYRQAPGKERELVATISWRAGSTYADSVKGRFTISRDNAKNTVYLQMNSLKPEDTAVYYCNAVWTYHSGSGGYLFDYWGQGTQVTVSS | low polyreactivity |
| QVQLVESGGGLVQAGGSLRLSCAASGVIFSFYAMGWDREAPGKERELVAAISSSGSTNYADSVKGRFTISRDNAKNTVYLQMNSLKPEDTAVYYCNTYFRYFSFYGRPFDYWGQGTQVTVSS | high polyreactivity |
| QVQLVESGGGLVQAGGSLRLSCAASGSIFGSYAMGWSRQAPGKERELVAAISKSGGNTYYADSVKGRFTISRDNAKNTVYLQMNSLKPEDTAVYYCAAYGFYRWRGYDYWGQGTQVTVSS | high polyreactivity |

| Sequence | polyreactivity (PSR sort gate) |
| --- | --- |
| QVQLEESGGGLVQAGGSLRLSCAASGFTFARNGMGWYRQAPVKESEFVAAITRSGGRTYYADSVKGRFTISRDNAKNTVYLQMNSLKPEDTAVYYCAAATSYGKSEYDYWGQGTQVTVSS | high polyreactivity |
| QVQLVESGGGLVQAGGSLRLSCAASGSTFYVYAMGWYRQAPGKDRELVAAITFSGGSTYADSVKGRFTISRDNAKNTVYLQMNSLKPEDTAVYYCATDERGRYTVVYVDEFLYDYWGQGTQVTVSS | low polyreactivity |
| QVQLVESGGGLVQAGGSLRLSSAASGRIFKDNAMGWYRQAPGKERELVAAISSGASTSYADSVKGRFTISRDNAKNTVYLQMNSLKPEDTAVYYCNRGGYLYYPGWLFDYWGQGTQVTVSS | low polyreactivity |
| QVQLQESGGGLVQAGGTLRLSCAASGSFSADEDMGWYRQAQGKEREFVAGISVGGNTNYADSVKGRFTISRENAKNTVYLELNSLKPEDTAVYYCAVLQDVYDALDYWAQGTQVTVSS | high polyreactivity |
| QVQLVESGGGLVQAGGSLRLSCAASGRTFGNNAMGWYRQAPGKERELVAAITARGSRTYYADSVKGRFTISRDNAKNTVYLQMNSLKPEDTAVYYCNAGVRRYYRSLHSIGIYYYWGQGTQVTVSS | high polyreactivity |
| QVQLVESGGGLVQAGCSLRLSCAASGFTFDDYAMGWYRQAPGKERELVAAISWSGGSTYYADSVKGRFTISRDNAKNTVYLQMNSLKPEDTAVYYCAALRTGAQYSTMDYWGQGTQVTVSS | low polyreactivity |
| QVQLVESGGGLVQAGGSLRLSCAASGSIFSGNAMGWYRQAPGKERELVAAIDWSGDSTYYADSVKGRFTISRDNAKNTVYLQMNSLKPEDTAVYYCNTVSFSWGYSAYDYWGQGTQVTVSS | low polyreactivity |
| QVQLVESGGGLVQAGGSLRLSCAASGSIFVQYAMGWCRQAPGKDRELVAAISDSGGSTYYADSVKGRFTISRDNAKNTVYVQMNSLKPEDTAVYYCAAVSTNSYSHRFGWGQGTQVTVSS | low polyreactivity |
| QVQLVESGGCLVQAGGSHRLSCAASGFIFYRYAMGWYRQAPGKERELVAAISGSGGRTYYADSVKGRFTISRDNAKNTVYLQMNSLKPEDTAVYYCAADKQAYVTDDYWGQGTQVTVSS | high polyreactivity |
| QVQLVESGGGLVQAGGSLRLSCAASGRTFLYYAMGWYRQSPGKERELVAAINRSGRTYYADSVKGRFTISRDNAKNTVYLQMNSLKPEDTAVYYCAADTRYPYRAYDYWGQGTQVTVSS | high polyreactivity |
| QVQLVESGGGLVQAGGSLRLICAASGSIFASYVMGWYRQAPGKERDLVAAITSRGTSTYYADSVKGRFTISRDNAKNTVYFQINSLKTEDTAVYYCAARLYGSAPQHEYWGKGTQVTVSS | low polyreactivity |
| QVQLVESVGGLVQAGGSLRLSCAASGSIFDRYAMGWYRQAPGKERELVAAISTGGSTNYADSVKGRFTISRDNAKNTVYLQMNSLKPEDTAVYYCAARYLYRMYYWGQGTQVTVSS | low polyreactivity |
| QVQLVESGGGLVQAGGSLRLSCAASGRTFRRYAMGWYRQAPGKERELVATITNAGSTYYADSVKGRFTISSDNAKNTVYLQMNSLKPEDTSVYYCAARVPYKSDYWGQGTQVTVSS | low polyreactivity |
| QVQLVESGGGLVQAGGSLRLSCAASGSTFGDNAMVWYRQAPGKERELVAAITFRDGITYYADSVKGRITISRDNAKNSVYLQMNSLKPEDTAFYYCAKGVHRRWYYGYGYWGQGTQVTVSS | high polyreactivity |
| QVQLVESGGGLVQAGGSLRLSCAASGSIFDWYAMGWYRQAPGKERELVAAIDSSGSSTYYADSVKGRFTISRDNAKNTVYLQMNSLKPEDTAVYYCAADSDWIRYWFGSLYGSDYWGQGTQVTVSS | low polyreactivity |
| QVQLVESGGGLVQAGGSLRLSCAASGSIFVVNAMGWYRQAPGKERELVAAIRLSGGSTYYADSVKGRFTISRDNAKNTVYLQMNSLKPEDTAVYDCAARYRELRTEYYYWGQGTQVTVSS | high polyreactivity |
